According to publication PMC7556464, “4CMenB vaccine induces elite cross-protective human antibodies that compete with human factor H for binding to meningococcal fHbp” (PLoS Pathogens, 2020):

Experiments:
Test in all cases: SPR
Conditions in all cases: both partners purified
[1] = biological target: T1, factor H binding protein (fHbp) variant 1.1 (Neisseria meningitidis MC58, fHbp v1.1, strain)
T1 construct: also called fHbp v1.1; fHbp v1; source: E. coli BL21(DE3), purified (Ni-NTA; SEC when necessary)
T1 chain: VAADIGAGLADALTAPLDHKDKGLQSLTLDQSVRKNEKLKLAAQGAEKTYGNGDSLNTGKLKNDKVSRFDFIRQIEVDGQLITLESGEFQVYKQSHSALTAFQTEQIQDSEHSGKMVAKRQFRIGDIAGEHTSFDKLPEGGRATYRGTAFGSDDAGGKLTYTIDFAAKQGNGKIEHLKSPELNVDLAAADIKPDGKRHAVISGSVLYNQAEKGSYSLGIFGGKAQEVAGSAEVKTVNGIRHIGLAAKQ

[2] = biological target: T2, factor H binding protein (fHbp) variant 3.28 (Neisseria meningitidis M1239, fHbp v3.28, UniProt Q19KF7, strain)
T2 construct: also called fHbp v3.28; fHbp v3; source: E. coli BL21(DE3), purified (Ni-NTA; SEC when necessary)

[3] = biological target: T3, factor H binding protein (fHbp) variant 2.16 (Neisseria meningitidis 961-5945, UniProt Q6VS19, strain)
T3 construct: also called fHbp v2.16; fHbp v2; source: E. coli BL21(DE3), purified (Ni-NTA; SEC when necessary)

Binder	koff [1] [s⁻¹]	kon [1] [M⁻¹ s⁻¹]	koff [2] [s⁻¹]	kon [2] [M⁻¹ s⁻¹]	Kd [3] [nM]	koff [3] [s⁻¹]	kon [3] [M⁻¹ s⁻¹]
human anti-fHbp mAb 4B10 (antibody, V domains shown, source: Expi293, transient transfection, purified (protein G Sepharose)) VH: EVQLVESGGGLVKPGGSLRLSCAASGFAFSTYSLHWVRQAPGKGLEWVSAITSSGSFLYYADSLKGRFTVSRDNAKNSLFLQMNSLRAGDTAVYYCARALQVEDGFPMFSGLDVWGQGTTVTVSS VL: QTVVTQPPSVSEAPRQRVAISCSGSSSNIGDNSVSWYQQLPGKAPKLLIYDDDLLPSGVSDRFSASKSGTSASLAISGLQSEDEAEYYCAAWDDSLKGVVFGGGTKLTVL	0.0025	7.7e+06	0.000473	284000	0.0451	0.000706	1.57e+07
human anti-fHbp mAb 4F9 (antibody, V domains shown, source: Expi293, transient transfection, purified (protein G Sepharose)) VH: QVQLVQSGGGLVKPGGSLRLSCAASGFPFSSYYMSWIRQAPGKGLEWVSDINNSGNVKEYADFVKGRLTISRDNVKNSMYLHMNSLRVEDTAVYYCARNRGRFDVWGQGTLVTVSA VL: EIVMTQSPGTLSLSPGETATLSCRASQMISSPFLAWYQQRRGQAPRLLIYGASTRATDTPDRFRGSGSGTDFILTISRLEPEDFAVYYCQHYDDSPFTFGQGTKLEIK	0.00251	3.29e+07	0.00095	380000		3.3e-05	1.16e+06
human anti-fHbp mAb 4B3 (antibody, V domains shown, source: Expi293, transient transfection, purified (protein G Sepharose)) VH: QVQLVQSGGGLVKPGGSLRLSCAASGFPFSSYYMSWIRQAPGKGLEWVSDINNSGNVKEYADFVKGRLTISRDNVKNSMYLHMNSLRVEDTAVYYCARNRGRFDVWGQGTLVTVSA VL: EIVMTQSPGTLSLSPGETATLSCRASQMISSPFLAWYQQRRGQAPRLLIYGASTRATDTPDRFRGSGSGTDFILTISRLEPEDFAVYYCQYYDDSPFTFGQGTKLEIK	0.000217	661000	0.0002	315000		7.98e-05	2.73e+06
human anti-fHbp mAb 3G7 (antibody, V domains shown, source: Expi293, transient transfection, purified (protein G Sepharose)) VH: EVQLLQSGGGLVKPGGSLRLSCAASGFPFSSYYMSWIRQAPGKGLEWVSDINNSGNVKEYADFVKGRLTISRDNVKNSMYLHMNSLRVEDTAVYYCARNRGRFDVWGQGTLVTVSA VL: EIVLTQSPGTLSLSPGETATLSCRASQMISSPFLAWYQQRRGQAPRLLIYGASTRATDTPDRFRGSGSGTDFILTISRLEPEDFAVYYCQYYDDSPFTFGQGTKLEIK	0.000311	903000	0.000176	258000 ± 0.01		3.89e-05	741000
human anti-fHbp mAb 1D1 (antibody, V domains shown, source: Expi293, transient transfection, purified (protein G Sepharose)) VH: QVQLVGSGGGLVKPGGSLRLSCAASGFTFSSYTMNWVRQAPGKGLEWVSSISSSSGYIYYADSLKGRFTISRDDAKNSLFLQMNSLRAEDTAVYFCARDKVLPAPPGFYGLDVWGPGTTVTVSS VL: QSVVTQPPSVSAAPGQKVTISCSGSSSNIEDNFVSWYQQLPGTAPKLLIYDNNQRPSGIPDRFSGSKSGTSATLGITGLQTGDEADYYCATWDNSLSARVFGGGTKLTVL	0.00154	1.81e+06	0.000642	371000		0.00264	450000
human anti-fHbp mAb 3F1 (antibody, V domains shown, source: Expi293, transient transfection, purified (protein G Sepharose)) VH: EVHLVESGGGLVKPGGSLRLSCAASGFTFSSYTMNWVRQAPGKGLEWVSSISSSSGYIYYADSLKGRFTISRDNAKNSLFLQMNSLRAEDTAVYFCARDKVLPAPPGFYGLDVWGPGTTVTVSS VL: QSVVTQPPSVSAAPGQKVTISCSGSSSNIEDNFVSWYQQLPGTAPKLLIYDNNQRPSGIPDRFSGSKSGTSATLGITGLQTGDEADYYCATWDNSLSARVFGGGTKLTVL	0.000917	885000	0.00063	340000		0.00478	382000
human anti-fHbp mAb 1E10 (antibody, V domains shown, source: Expi293, transient transfection, purified (protein G Sepharose)) VH: QVQLVESGGDLVKPGGSLRLSCVASGFTFSSYTMNWVRQAPGKGLEWVSSITSSSSFTYYADSVKGRFIISRDNAKNSLSLQMNNLRVEDTATYYCARRKDSSDYDWYYYYGMDVWGLGTTVTVSS VL: QSVVTQPPSVSAAPGQKVTISCSGSSSNIGDNYMSWYQQIPGTAPKLLIFDNDQRPSGIPDRFSASKSGTSATLDITGFQTGDEADYYCGTWDSGLSAPVFGGGTKLTVL	0.000657	427000	0.000495	390000		0.00079	630000
human anti-fHbp mAb 2G1 (antibody, V domains shown, source: Expi293, transient transfection, purified (protein G Sepharose)) VH: QVQLVESGGDLVKPGGSLRLSCVASGFTFSSYTMNWVRQAPGKGLEWVSSITSSSSFTYYADSVKGRFIISRDNAKNSLSLQMNNLRVEDTATYYCARRKDSSDYDWYYYYGMDVWGLGTTVTVSS VL: QSVLTQPPSVSAAPGQKVTISCSGSSSNIGDNYMSWYQQIPGTAPKLLIFDNDQRPSGIPDRFSASKSGTSATLDITGFQTGDEADYYCGTWDSGLSAPVFGGGTKLTVL			0.000584	332000		0.00045	270000
